{
  "source": "patent US6586658",
  "molecular_target": "FaoA-GUS fusion protein (UniProt P05804)",
  "sequence (P05804 whole entry, looked up, the tested form may be a part)": "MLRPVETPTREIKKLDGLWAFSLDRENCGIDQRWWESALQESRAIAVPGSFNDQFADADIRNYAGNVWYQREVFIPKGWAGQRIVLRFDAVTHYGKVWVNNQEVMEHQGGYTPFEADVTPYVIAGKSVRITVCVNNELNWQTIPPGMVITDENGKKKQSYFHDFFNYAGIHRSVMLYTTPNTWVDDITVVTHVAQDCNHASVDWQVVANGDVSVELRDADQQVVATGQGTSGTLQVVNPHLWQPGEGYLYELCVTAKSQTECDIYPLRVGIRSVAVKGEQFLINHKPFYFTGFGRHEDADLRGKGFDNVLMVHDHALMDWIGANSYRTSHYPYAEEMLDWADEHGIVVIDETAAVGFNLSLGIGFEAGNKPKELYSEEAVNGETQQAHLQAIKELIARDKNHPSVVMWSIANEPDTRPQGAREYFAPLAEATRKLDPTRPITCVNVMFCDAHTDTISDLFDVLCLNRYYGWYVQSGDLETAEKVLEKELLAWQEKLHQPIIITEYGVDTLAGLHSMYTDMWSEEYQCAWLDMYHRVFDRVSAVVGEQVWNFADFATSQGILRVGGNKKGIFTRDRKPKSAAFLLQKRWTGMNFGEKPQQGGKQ",
  "data": [
    {"substance": "FaoB polypeptide of the Pseudomonas putida FaoAB fatty acid oxidation multienzyme complex", "values": [
      {"measurement": "GUS activity (pmol MU/min), OS fraction of flax zygotic embryos, pmfG138:pmf224 (1:1)", "result": 386, "unit": "pmol MU/min"},
      {"measurement": "GUS activity (pmol MU/min), OS fraction of flax zygotic embryos, pmfG138:pmf224 (1:3)", "result": 440, "unit": "pmol MU/min"},
      {"measurement": "GUS activity (pmol MU/min), SN fraction of flax zygotic embryos, pmfG138:pmf224 (1:1)", "result": 175, "unit": "pmol MU/min"},
      {"measurement": "GUS activity (pmol MU/min), SN fraction of flax zygotic embryos, pmfG138:pmf224 (1:3)", "result": 214, "unit": "pmol MU/min"},
      {"measurement": "GUS activity (pmol MU/min), total homogenate of B. napus microspore embryos co-bombarded with pmfG138:pmf224", "result": 85, "unit": "pmol MU/min"},
      {"measurement": "GUS activity in a GUS-FaoA fusion, transient expression in embryos", "result": "> 2", "unit": "fold"},
      {"measurement": "GUS specific activity, Ara-FaoA-GUS:pha-FaoB against Ara-FaoA-GUS, background subtracted, B. napus microspore embryos", "result": 2, "unit": "fold"},
      {"measurement": "Specific activity (activity/mg prt), OS fraction of flax zygotic embryos, pmfG138:pmf224 (1:1) (activity/mg prt)", "result": 52.8},
      {"measurement": "Specific activity (activity/mg prt), OS fraction of flax zygotic embryos, pmfG138:pmf224 (1:3) (activity/mg prt)", "result": 79},
      {"measurement": "Specific activity (activity/mg prt), SN fraction of flax zygotic embryos, pmfG138:pmf224 (1:1) (activity/mg prt)", "result": 23.9},
      {"measurement": "Specific activity (activity/mg prt), SN fraction of flax zygotic embryos, pmfG138:pmf224 (1:3) (activity/mg prt)", "result": 38.4},
      {"measurement": "Specific activity (activity/mg prt), total homogenate of B. napus microspore embryos co-bombarded with pmfG138:pmf224 (activity/mg prt)", "result": 29.1}
    ]}
  ]
}
